Values joined by “and” are separate entries in the source; they are usually repeats but may differ in a detail not shown here. Equal entries are not always repeated.
Key:
[1] = target: HAdV-C5 hexon labeled with AlexaFluor594 (human adenovirus C5 (HAdV-C5)) (UniProt P04133); assay: MST; hexon labeled with AlexaFluor594 at constant amount, 16 concentrations of hLF or hLF mutant (1:1 serial dilution); 20 mM HEPES pH 7.2, 5 mM NaCl, 0.05% Tween 20; 25°C; Monolith NT.115; n = 2
[2] = target: HAdV-C5 hexon (human adenovirus C5 (HAdV-C5)) (UniProt P04133); assay: native MS; 0.5 µM hexon:hLF complex purified in buffer D, exchanged into ammonium acetate pH 7.0 and diluted with water to 5.85 mM ammonium acetate; nanoelectrospray, Orbitrap Q Exactive UHMR
[3] = target: HAdV-C5 hexon (human adenovirus C5 (HAdV-C5)) (UniProt P04133); assay: native MS; 0.5 µM hexon:hLF complex purified in buffer D, exchanged into and diluted with 20 mM ammonium acetate pH 7.0; nanoelectrospray, Orbitrap Q Exactive UHMR
[4] = target: HAdV-C5 hexon (human adenovirus C5 (HAdV-C5)) (UniProt P04133); assay: single-particle cryo-EM, 2D class averages; freshly purified hexon:hLF complex (1 mg/mL) on Au Quantifoil R1.2/1.3 grids, Talos Arctica; top and bottom views only, no 3D reconstruction; 2D classes used to refine a hybrid model

Sequence of HAdV-C5 hexon (human adenovirus C5 (HAdV-C5)) (P04133 whole entry): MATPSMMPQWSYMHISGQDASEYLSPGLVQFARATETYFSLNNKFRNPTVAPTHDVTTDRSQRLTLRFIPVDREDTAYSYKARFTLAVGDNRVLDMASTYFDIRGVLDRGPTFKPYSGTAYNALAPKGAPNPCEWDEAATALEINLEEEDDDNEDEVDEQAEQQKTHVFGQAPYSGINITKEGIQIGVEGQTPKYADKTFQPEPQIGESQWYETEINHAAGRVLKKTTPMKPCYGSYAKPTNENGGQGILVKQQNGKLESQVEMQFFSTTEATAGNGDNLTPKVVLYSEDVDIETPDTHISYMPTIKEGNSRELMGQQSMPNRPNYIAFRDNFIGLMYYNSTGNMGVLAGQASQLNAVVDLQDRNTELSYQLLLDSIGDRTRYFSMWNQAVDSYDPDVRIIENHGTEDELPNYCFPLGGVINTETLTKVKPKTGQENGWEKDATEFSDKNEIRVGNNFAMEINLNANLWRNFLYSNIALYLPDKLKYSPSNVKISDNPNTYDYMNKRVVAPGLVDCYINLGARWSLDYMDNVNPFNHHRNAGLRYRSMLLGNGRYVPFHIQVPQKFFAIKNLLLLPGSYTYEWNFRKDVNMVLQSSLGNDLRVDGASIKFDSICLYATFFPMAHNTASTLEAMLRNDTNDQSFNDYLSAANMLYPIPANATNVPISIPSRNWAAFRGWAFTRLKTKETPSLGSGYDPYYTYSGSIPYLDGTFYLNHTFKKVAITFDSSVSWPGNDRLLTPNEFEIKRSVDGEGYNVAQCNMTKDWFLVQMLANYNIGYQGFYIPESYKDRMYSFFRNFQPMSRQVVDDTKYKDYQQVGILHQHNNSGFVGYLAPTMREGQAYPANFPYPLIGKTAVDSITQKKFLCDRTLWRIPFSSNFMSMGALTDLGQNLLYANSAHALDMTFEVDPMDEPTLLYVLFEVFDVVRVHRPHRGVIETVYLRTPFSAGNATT
Sequence of HAdV-C5 hexon labeled with AlexaFluor594 (human adenovirus C5 (HAdV-C5)) (P04133 whole entry): as above

Question: For “hLF mut5 (R24S/R27A/K28A/R30A) (natural protein)”, which affinity relative to WT hLF [1] is on record?
Answer: Its affinity relative to WT hLF is less than 20%.

Question: Which reduction of binding affinity against WT hLF [1] does the source give for “hLF mut7 (N673A/S678A) (natural protein)” here?
Answer: The reduction of binding affinity against WT hLF was 40%.

Question: How did the reduction of binding affinity against WT hLF [1] turn out when “hLF mut8 (E687A/K691A) (natural protein)” was run?
Answer: The reduction of binding affinity against WT hLF was 70%.

Question: What does the source list for “human lactoferrin (hLF), wild type (natural protein)”?
Answer: stoichiometry N (hLF per hexon trimer) [2]: 1 and 2; stoichiometry N (hLF per hexon trimer) [3]: 1; stoichiometry N (hLF per hexon trimer) [4]: 2 and 1

From article PMC10949841
